Values of other authors, collected in article PMC8494837.

Target: Ubiquitin (Homo sapiens) (UniProt P0CG47)

CXCR4, sequence (P61073 whole entry): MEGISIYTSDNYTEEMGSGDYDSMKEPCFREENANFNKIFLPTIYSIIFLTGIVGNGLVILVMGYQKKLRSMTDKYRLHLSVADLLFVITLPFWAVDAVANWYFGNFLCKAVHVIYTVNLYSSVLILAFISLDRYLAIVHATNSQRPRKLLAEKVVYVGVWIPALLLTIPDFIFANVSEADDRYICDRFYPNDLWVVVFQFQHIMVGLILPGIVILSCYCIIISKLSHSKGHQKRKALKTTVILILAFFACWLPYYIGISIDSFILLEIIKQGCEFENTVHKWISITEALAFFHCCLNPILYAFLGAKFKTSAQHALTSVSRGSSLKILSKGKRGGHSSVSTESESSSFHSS

Kd: 84 nM
Substance: CXCR4 (from UniProt P61073)
